From publication PMC8061694, “Ectopic positioning of the cell division plane is associated with single amino acid substitutions in the FtsZ-recruiting SsgB in Streptomyces” (Open Biology, 2021)

B1: Streptomyces coelicolor FtsZ, C-terminal His-tag fusion (natural protein, UniProt P45500 1-399, looked up)
chain: MAAPQNYLAVIKVIGVGGGGVNAINRMIEVGLKGVEFIAINTDAQALLMSDADVKLDVGRELTRGLGAGANPAVGRKAAEDHREEIEEVLKGADMVFVTAGEGGGTGTGGAPVVANIARSLGALTIGVVTRPFTFEGRRRANQAEDGIAELREEVDTLIVIPNDRLLSISDRQVSVLDAFKSADQVLLSGVQGITDLITTPGLINLDFADVKSVMSEAGSALMGIGSARGDDRAVAAAEMAISSPLLEASIDGARGVLLSISGGSDLGLFEINEAAQLVSEAAHPEANIIFGAVIDDALGDEVRVTVIAAGFDGGQPPSKRDNVLGSSSAKREEPTPARPSESRPSFGSLGSVKPKEEPEPAPVPEPVADLPVSPPPVPPSRTYSDSAAEELDVPDFLK
notes: FtsZ of Streptomyces coelicolor, codon-optimised ftsZ cloned into pET28a; Forms polymers with GTP; source: E. coli Rosetta 2 (DE3) pLysS, purified

Key:
[1] = molecular target: Streptomyces coelicolor SsgB, wild type, His6-tagged (Streptomyces coelicolor) (UniProt Q9L268); experiment: crystal structure; tetragonal crystals, sitting-drop vapour diffusion at 18°C; 0.2 M sodium chloride, 0.1 M sodium/potassium phosphate pH 6.2, 50% PEG200; 2.1 Å; eight molecules per asymmetric unit
[2] = molecular target: B1; experiment: co-sedimentation; co-pelleting assay: purified FtsZ with or without equimolar SsgB or its mutants, 15 µM final; pre-spun 50 k r.p.m. 30 min; 2 mM MgCl2 and GTP added, 10 min at 30°C; centrifuged 65 k r.p.m. at 20°C for 30 min; supernatants and pellets on SDS-PAGE; settings: both partners purified
[3] = molecular target: the molecule itself; experiment: as above

| stoichiometry N [1] | binding result [2] | Binder | binding result [3] |
| --- | --- | --- | --- |
| 3 | binds | Streptomyces coelicolor SsgB, wild type, His6-tagged (natural protein, UniProt Q9L268 1-137, looked up, SsgB of Streptomyces coelicolor, entire coding region, 137 aa native polypeptide; expressed from pET28a as a 157 aa fusion protein; Trimer in the crystal, mainly monomer by SEC; The last 13 residues are not modelled in the structure; also called ScSsgB; wild-type SsgB; source: E. coli Rosetta 2 (DE3) pLysS, purified) MNTTVSCELHLRLVVSSESSLPVPAGLRYDTADPYAVHATFHTGAEETVEWVFARDLLAEGLHRPTGTGDVRVWPSRSHGQGVVCIALSSPEGEALLEAPARALESFLKRTDAAVPPGTEHRHFDLDQELSHILAES |  |
|  | binds | SsgB E120A, His6-tagged (natural protein, Streptomyces coelicolor, UniProt Q9L268 1-137, looked up, SsgB of Streptomyces coelicolor, entire coding region (137 aa), point mutant E120A, expressed in the same way as wild type; also called SsgB variant E120A; source: E. coli Rosetta 2 (DE3) pLysS, purified) MNTTVSCELHLRLVVSSESSLPVPAGLRYDTADPYAVHATFHTGAEETVEWVFARDLLAEGLHRPTGTGDVRVWPSRSHGQGVVCIALSSPEGEALLEAPARALESFLKRTDAAVPPGTAHRHFDLDQELSHILAES |  |
|  | binds | SsgB-E120G, His6-tagged (natural protein, Streptomyces coelicolor, UniProt Q9L268 1-137, looked up, SsgB of Streptomyces coelicolor, entire coding region (137 aa), point mutant E120G, expressed in the same way as wild type; also called SsgB variant E120G; source: E. coli Rosetta 2 (DE3) pLysS, purified) MNTTVSCELHLRLVVSSESSLPVPAGLRYDTADPYAVHATFHTGAEETVEWVFARDLLAEGLHRPTGTGDVRVWPSRSHGQGVVCIALSSPEGEALLEAPARALESFLKRTDAAVPPGTGHRHFDLDQELSHILAES |  |
|  |  | B1 | binds |
